Test results: patent publication US20250197448A1 (UNIVERSITY OF ROCHESTER, published 2025)
Starred links: 1 amine or outer side, 2 acyl side, 3 side chain; linkers in the order of their positions; H or OH if unused. Positions of bridges follow the written chain, without caps; N, C: chain ends. Non-standard residues stand in square brackets, D forms with d. Primed or numbered codes have the meaning given here. No end group written: not given here. O2beY = O-(2-bromoethyl)-tyrosine (p-2beF), reacts with Cys to form a thioether, O=C([C@H](Cc1ccc(OCCBr)cc1)N[*:1])[*:2]; pCaaF″ = p-(2-chloro-acetamido)-phenylalanine, thioether-linked to Cys, O=C(C[*:3])Nc1ccc(C[C@H](N[*:1])C(=O)[*:2])cc1; pCaaF = p-(2-chloroacetamido)-phenylalanine, O=C(CCl)Nc1ccc(C[C@H](N[*:1])C(=O)[*:2])cc1

Assays:
streptavidin [1] = target: T1, streptavidin (UniProt P22629 37-163, limits assumed); assay: plate binding assay on streptavidin-coated plates
T1 sequence (P22629 37-163 limits assumed): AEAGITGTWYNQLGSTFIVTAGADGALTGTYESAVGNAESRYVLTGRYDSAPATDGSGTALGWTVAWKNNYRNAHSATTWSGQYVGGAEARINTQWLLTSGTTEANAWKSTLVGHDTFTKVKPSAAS

streptavidin [2] = target: T1, streptavidin; assay: plate binding assay: streptavidin-coated plate, FLAG-tagged binder titrated, HRP anti-FLAG detection, 1:1 isotherm fit
Source text: The resulting cyclopeptibody (called Strep-m3-Tras-Fc) was expressed, purified, and characterized as described in Example 4. This construct was confirmed to contain the cyclic peptide constrained via O2beY/Cys thioether (i/i-8) linkage, where ‘i’ indicates the position of the non-canonical amino acid O2beY (also refereed to herein as p-2beF). The cyclopeptibody Strep-m3-Tras-Fc was then characterized for its streptavidin binding affinity using a reported in vitro binding assay (Owens et al, ACS Cent Sci. (2020); 6(3):368-381).
Streptavidin Binding Assay. For the streptavidin binding assays, streptavidin-coated plates (Sigma-Aldrich) were used. […] After washing three times with wash buffer, 100 μL of 2.2 mM o-phenylenediamine dihydrochloride, 4.2 mM urea hydrogen peroxide, 100 mM dibasic sodium phosphate, and 50 mM sodium citrate, pH 5.0, were added to each well, followed by measurement of the absorbance at 450 nm after 10-20 min using a Tecan Infinite 1000 plate reader. Equilibrium dissociation constants (Kp) were determined by fitting the dose-response curves to a 1:1 binding isotherm equation via nonlinear regression. using SigmaPlot. Mean values and standard deviations were calculated from experiments performed in triplicate.

[3] = target: T2, PD-L1 (Programmed Death-Ligand 1), recombinant, His-tagged (human, UniProt Q9NZQ7 18-134, limits assumed); assay: plate binding assay with immobilised PD-L1
T2 construct: Immobilised on microtiter plates
T2 sequence (Q9NZQ7 18-134 limits assumed): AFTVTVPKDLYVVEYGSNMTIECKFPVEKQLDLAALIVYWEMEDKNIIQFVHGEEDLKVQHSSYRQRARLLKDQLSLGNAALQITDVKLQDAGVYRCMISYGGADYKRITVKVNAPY
Experimental: After washing (3×150 μL of PBS with 0.05% Tween-20), each well was incubated with 100 μL of purified FLAG-tagged cyclopeptibody at varying concentrations for 1 hour at room temperature. After washing three times with wash buffer, each well was incubated with 100 μL of 1:2500 dilution of HRP-conjugate mouse anti-FLAG polyclonal antibody (Sigma-Aldrich) for 1 hour at room temperature. After washing three times with wash buffer, 100 μL of 2.2 mM o-phenylenediamine dihydrochloride, 4.2 mM urea hydrogen peroxide, 100 mM dibasic sodium phosphate, and 50 mM sodium citrate, pH 5.0, were added to each well, followed by measurement of the absorbance at 450 nm after 10-20 min using a Tecan Infinite 1000 plate reader. Equilibrium dissociation constants (Kp) were determined by fitting the dose-response curves to a 1:1 binding isotherm equation via nonlinear regression. using SigmaPlot. Mean values and standard deviations were calculated from experiments performed in triplicate.
To illustrate this aspect of the invention, a series of PD-L1 targeting cyclopeptibodies were prepared by introducing variable spacer sequences between the cyclic peptide and Fc domain in the PD-L1-targeting cyclopeptibody cRK10-Tras-Fc (Table 1, Entries 31-34; FIG. 20). The spacer sequences included a more flexible (-GSGSGS-), more rigid (-PAPAP-; -EAAAK-) or longer linker (Q12) compared to the exa-glutamine (Q6) spacer sequence in cyclopeptibody cRK10-Tras-Fc.

[4] = target: T2, PD-L1 (Programmed Death-Ligand 1), …; assay: plate binding assay: immobilised PD-L1, FLAG-tagged binder titrated, HRP anti-FLAG detection
Experimental: (§1) Streptavidin Binding Assay. For the streptavidin binding assays, streptavidin-coated plates (Sigma-Aldrich) were used. For the Keap1, Shh and PD-L1 binding assay, target protein was immobilized on microtiter plates by incubating 100 μL of a 4 μM protein solution in PBS buffer overnight at 4° C., followed by decanting the protein solution and blocking with 0.5% bovine serum albumin in PBS for 2 h at room temperature. After washing (3×150 μL of PBS with 0.05% Tween-20), each well was incubated with 100 μL of purified FLAG-tagged cyclopeptibody at varying concentrations for 1 hour at room temperature. After washing three times with wash buffer, each well was incubated with 100 μL of 1:2500 dilution of HRP-conjugate mouse anti-FLAG polyclonal antibody (Sigma-Aldrich) for 1 hour at room temperature. After washing three times with wash buffer, 100 μL of 2.2 mM o-phenylenediamine dihydrochloride, 4.2 mM urea hydrogen peroxide, 100 mM dibasic sodium phosphate, and 50 mM sodium citrate, pH 5.0, were added to each well, followed by measurement of the absorbance at 450 nm after 10-20 min using a Tecan Infinite 1000 plate reader. Equilibrium dissociation constants (Kp) were determined by fitting the dose-response curves to a 1:1 binding isotherm equation via nonlinear regression. using SigmaPlot. Mean values and standard deviations were calculated from experiments performed in triplicate.

[5] = target: T2, PD-L1 (Programmed Death-Ligand 1), …; assay: competition assay: plate-immobilised PD-L1, competitor biotinylated PD-1 (500 nM), bound PD-1 read with HRP-streptavidin
Experimental: as §1, with “After washing three times with wash buffer, each well was incubated with 100 μL of 1:2500 dilution of HRP-conjugate mouse anti-FLAG polyclonal antibody (Sigma-Aldrich) for 1 hour at room temperature.” left out
PD-L1 Competition Assay. […] After washing, the bound PD-1 was quantified by means of HRP-conjugate Streptavidin and colorimetric assay as described above. […]

[6] = target: T3, PD-L1 on the surface of MDA-MB-231 breast cancer cells (human, UniProt Q9NZQ7 19-290); assay: flow cytometry on MDA-MB-231 cells, 0.09 mg/ml, FITC anti-human IgG Fc secondary
T3 construct: whole, on cells; also called PD-L1 receptor on the cancer cells
T3 sequence (Q9NZQ7 19-290): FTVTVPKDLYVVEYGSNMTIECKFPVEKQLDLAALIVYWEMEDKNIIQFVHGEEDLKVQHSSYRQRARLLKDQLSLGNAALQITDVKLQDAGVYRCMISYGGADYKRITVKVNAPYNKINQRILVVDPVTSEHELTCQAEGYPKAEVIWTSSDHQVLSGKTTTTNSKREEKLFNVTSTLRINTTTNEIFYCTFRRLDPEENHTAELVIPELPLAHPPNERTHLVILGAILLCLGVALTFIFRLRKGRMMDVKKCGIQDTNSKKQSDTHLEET
Experimental: The cells were then incubated with fluorescein-conjugated anti-human IgG Fc antibody and analyzed by flow cytometry. The same experiment was carried out in parallel using commercially available anti-PD-L1 antibody as positive control and various negative controls. […] Several applications for these compounds can be easily envisioned, including detection and/or staining of PD-L1 in vitro and in vivo (e.g., upon conjugation of the cyclopeptibody with a fluorescent dye, IR probe, or PET contrast agent), cell-targeted drug delivery (e.g., upon conjugation of the PD-L1-binding cyclopeptibody with a drug cargo), and use as therapeutic agents in cancer immunotherapy, among others.

[7] = target: T4, Kelch-like ECH-associated protein 1 (Keap1) (human, UniProt Q14145 321-609, limits assumed); assay: plate binding assay: immobilised Keap1, FLAG-tagged binder titrated, HRP anti-FLAG detection, 1:1 isotherm fit
T4 sequence (Q14145 321-609 limits assumed): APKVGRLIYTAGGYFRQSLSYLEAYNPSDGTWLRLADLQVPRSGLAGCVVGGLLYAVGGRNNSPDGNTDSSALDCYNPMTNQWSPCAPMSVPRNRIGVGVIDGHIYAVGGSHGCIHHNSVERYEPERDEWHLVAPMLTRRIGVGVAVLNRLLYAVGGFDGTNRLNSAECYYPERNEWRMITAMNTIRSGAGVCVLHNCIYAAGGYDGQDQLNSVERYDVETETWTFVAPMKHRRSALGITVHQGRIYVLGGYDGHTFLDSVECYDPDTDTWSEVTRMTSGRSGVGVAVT
Experimental: as §1

[8] = target: T4, Kelch-like ECH-associated protein 1 …; assay: plate binding assay with immobilised Keap1
Experimental: Keap1 Binding Assay. For the Keap1 binding assay, Keap1 was immobilized on microtiter plates by incubating 100 μL of a 4 μM protein solution in PBS buffer overnight at 4° C., followed by washing (3×150 μL of PBS with 0.5% Tween-20) and blocking with 0.5% bovine serum albumin in PBS for 1.5 h at room temperature. After washing, each well was incubated with 100 μL of purified FLAG-tagged peptide at varying concentrations for 1 hour at room temperature. After washing three times with wash buffer, each well was incubated with 100 μL of 1:2500 dilution of HRP-conjugate mouse anti-FLAG polyclonal antibody (Sigma-Aldrich) for 1 hour at room temperature. After three washing steps with wash buffer, 100 μL of 2.2 mM o-phenylenediamine dihydrochloride, 4.2 mM urea hydrogen peroxide, 100 mM dibasic sodium phosphate, and 50 mM sodium citrate, pH 5.0, were added to each well, followed by measurement of the absorbance at 450 nm after 10-20 min using a Tecan Infinite 1000 plate reader. Equilibrium dissociation constants (KD) were determined by fitting the dose-response curves to a 1:1 binding isotherm equation via nonlinear regression using SigmaPlot. Mean values and standard deviations were calculated from experiments performed in triplicate. […]

Sonic Hedgehog (Shh) = Sonic Hedgehog (Shh) (human, UniProt Q15465 24-197, limits assumed); assay: plate binding assay: immobilised Shh, FLAG-tagged binder titrated, HRP anti-FLAG detection

B1: Strep-m3-Tras-Fc (Fc fusion)
chain: DYKDDDDKGSGSSCWWHPQGD[O2beY]QQQQQQ-{Fc-H6}
modifications: thioether 14-22; also: dimeric through the Fc
notes: Cyclic peptide fused through a (Gln)6 spacer to human IgG1 Fc; dimeric through the Fc; made in E. coli; also called FLAG-(GS)2-SCWWHPQGDZ-(Q)6-(Fc)^1-H6
Question: B1 was tested. Which “fold improved affinity against the same cyclic peptide fused to CBD” value (streptavidin [1]) did it give?
Answer: 1.3 fold

Question: What about the Kd (streptavidin [2]) of the same binder?
Answer: 37 nM

Question: For TYLCGAISLA[pCaaF]KAQIKESL (thioether 4-11) [cyclic peptide cRK10 (pCaaF)], which Kd [3] is on record?
Answer: 13000 nM

Question: What does the source list for WHFS[pCaaF″]NWRWLPC (thioether 5-12; not fully specified) [cyclic peptide cCLP003 (pCaaF)]?
Answer: Kd [3]: ~10000 nM; fold higher affinity against the linear CLP003 peptide [3]: ~40 fold

Question: Which Kd (streptavidin [2]) does the source give for SCWWHPQGD[O2beY] (thioether 2-10; also: as CBD fusion) [cyclic peptide Strep-m3 alone (as CBD fusion)] here?
Answer: 50 nM

B2: cRK10 (pCaaF)-Tras-Fc (Fc fusion)
chain: DYKDDDDKGSGSTYLCGAISLA[pCaaF]KAQIKESLQQQQQQ-{Fc-H6}
modifications: thioether 16-23
notes: also called cRK10-Tras-Fc; RK10-Tras-Fc-His
Question: How did the Kd [3] turn out when B2 was run?
Answer: 42 nM

Question: What about the “fold higher PD-L1 binding affinity against FLAG-cRK10-Q12-Tras-Fc-His” value [3] of the same binder?
Answer: 6 fold

Question: What about the “fold higher binding affinity against the cyclic peptide cRK10” value [3] of the same binder?
Answer: 300 fold

Question: And the Kd [4]?
Answer: 40 nM

B3: cCLP003 (pCaaF)-Tras-Fc (Fc fusion)
chain: DYKDDDDKGSGSWHFS[pCaaF]NWRWLPCQQQQQQ
modifications: thioether 17-24 (inferred); not fully specified (C-terminus)
notes: also called cCLP003-Tras-Fc; cCLP003-Tras-Fc-His
Question: How did the “fold increase in affinity against the cyclic peptide alone” value [3] turn out when B3 was run?
Answer: 40 fold

Question: And the Kd [4]?
Answer: ~250 nM

Question: What about the IC50 [5] of the same binder?
Answer: 6000 nM

Question: And the “fold higher MFI against cRK10-Tras-Fc” value [6]?
Answer: 4 fold

B4: KKD-m1-Tras-Fc (Fc fusion)
chain: DYKDDDDKGSGS[O2beY]DSETGECQQQQQQ-{Fc-H6}
modifications: thioether 13-20; also: dimeric through the Fc
notes: Cyclic peptide fused through a (Gln)6 spacer to human IgG1 Fc; dimeric through the Fc; made in E. coli; also called FLAG-(GS)2-ZDSETGEC-(Q)6-(Fc)^1-H6
Question: Which results are given for B4?
Answer: Kd [7]: 4 nM; fold improved affinity against the same cyclic peptide fused to CBD [8]: > 20 fold

Question: [O2beY]DSETGEC (thioether 1-8; also: as CBD fusion) [cyclic peptide KKD-m1 alone (as CBD fusion)] was tested. Which Kd [7] did it give?
Answer: 85 nM

B5: FLAG-cRK10-Q12-Tras-Fc-His (Fc fusion)
chain: DYKDDDDKGSGSTYLCGAISLA[pCaaF]KAQIKESLQQQQQQQQQQQQ-{Fc-H6}
modifications: thioether 16-23
notes: Spacer variant of cRK10-Tras-Fc (Q12); also called FLAG-(GS)2-TYLCGAISLAZKAQIKESL-(Q)12-(Fc)^1-H6
Question: With B5 as the binder, how does the Kd [3] read?
Answer: 237 nM

B6: FLAG-Strep-m3-Strep-m3-Tras-Fc-His (Fc fusion)
chain: DYKDDDDKGSGSSCWWHPQGD[O2beY]GSGSENLYFQGSGSSCWWHPQGD[O2beY]IEGRGSGS-{Fc-His}
modifications: thioether 14-22, 38-46; not fully specified; also: second O2beY at Y30, thioether-linked to Cys of its own cyclic peptide
notes: Two copies of the Strep-m3 cyclic peptide in tandem on each Fc chain; also called polyvalent streptavidin-targeting cyclopeptibody
Question: With B6 as the binder, how does the Kd (streptavidin [1]) read?
Answer: 56 nM

B7: FLAG-KKD-m1-KKD-m1-Tras-Fc-His (Fc fusion)
chain: DYKDDDDKGSGSYDSETGECGSGSENLYFQGSGSYDSETGECIEGRGSGS
modifications: thioether (positions not given here); not fully specified (residues 13, 35, C-terminus, bridges); also: two O2beY, each thioether-linked to Cys of its own cyclic peptide, places them at C20 and L27
notes: Two copies of the KKD-m1 cyclic peptide in tandem on each Fc chain; also called polyvalent Keap1-targeting cyclopeptibody
Question: For B7, which Kd [8] is on record?
Answer: 45 nM

Question: With TLSW[O2beY]EAMDMCTSS (thioether 5-11; also: as CBD fusion) [cyclic peptide L2-m5 alone (as CBD fusion)] as the binder, how does the Kd (Sonic Hedgehog (Shh)) read?
Answer: 388 nM
